This is an account of results in publication PMC3293397 (Biochemistry, 2012).

This data set concerns the molecule itself. The data set is described as follows: crystal structure.

B1: S. elongatus KaiC E318A mutant protein (enzyme, Synechococcus elongatus PCC 7942, UniProt Q79PF4 1-519, looked up)
chain: MTSAEMTSPNNNSEHQAIAKMRTMIEGFDDISHGGLPIGRSTLVSGTSGTGKTLFSIQFLYNGIIEFDEPGVFVTFEETPQDIIKNARSFGWDLAKLVDEGKLFILDASPDPEGQEVVGGFDLSALIERINYAIQKYRARRVSIDSVTSVFQQYDASSVVRRELFRLVARLKQIGATTVMTTERIEEYGPIARYGVEEFVSDNVVILRNVLEGERRRRTLEILKLRGTSHMKGEYPFTITDHGINIFPLGAMRLTQRSSNVRVSSGVVRLDEMCGGGFFKDSIILATGATGTGKTLLVSRFVENACANKERAILFAYAESRAQLLRNAYSWGMDFEEMERQNLLKIVCAYPESAGLEDHLQIIKSEINDFKPARIAIDSLSALARGVSNNAFRQFVIGVTGYAKQEEITGLFTNTSDQFMGAHSITDSHISTITDTIILLQYVEIRGEMSRAINVFKMRGSWHDKAIREFMISDKGPDIKDSFRNFERIISGSPTRITVDEKSELSRIVRGVQEKGPES
modifications: phosphothreonine at T432 in five of the six subunits; no S431 phosphorylated
In the case of B1, the binding result was “binds”.
